B1: WDFY1 (parent)
chain: FWNIKQMWDTKTLGLRQHHCRKCG

Variants of: B1
Assay: protein stability index of a GFP-peptide fusion (GPS, HEK-293T) (PSI 1-6); higher = more stable
Conditions: c terminus: a fixed tail appended
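Also: lentivirally expressed fusions sorted by FACS into six bins by GFP to DsRed ratio, PSI derived from sequencing read proportions per bin multiplied by bin number.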

Protein stability index of substitutions, site by site:
R21: L 1.67 | H 1.57 | I 1.72 | E 2.07 | N 1.83 | D 2.8 | A 2.03 | F 1.85 | G 1.84 | C 2.12 | K 2.78 | M 1.71
L15: Q 2.29 | E 3.35 | M 1.79 | D 1.56 | P 1.55 | R 1.93 | T 2.43 | I 1.75 | F 1.91 | V 2.35 | G 1.78 | N 2.07 | Y 1.98 | A 2.27 | K 2.14 | S 2.95 | C 1.75 | H 2.43
Q17: V 1.68 | I 1.81 | F 1.88 | R 2.75 | G 2.98 | N 2.14 | S 2.05 | W 2.02 | D 1.63 | K 1.99 | P 2.13 | C 2.13 | Y 1.98 | E 2.56 | A 1.6 | T 2.12 | M 1.7 | L 2.53 | H 1.83
R16: Y 1.6 | V 1.88 | W 1.14 | S 2.21 | E 2.3 | H 2.5 | M 1.65 | K 2.89 | A 1.45 | Q 1.94 | C 1.59 | G 1.64 | P 1.8 | N 2.1 | L 1.79 | T 2.55 | I 1.43 | D 2.84
H18: N 2.35 | F 1.64 | E 2.21 | Y 2.08 | C 3 | W 2.06 | I 2.01 | L 2.31 | V 2.02 | T 3.16 | P 2.63 | M 2.27 | G 2.39 | R 2.21 | K 1.89 | D 2.92 | Q 1.82 | A 1.84 | S 2.58
M7: S 2.39 | E 2.48 | H 2.9 | T 1.69 | Y 2.45 | W 1.96 | P 1.95 | D 2.54 | C 2.06 | G 1.89 | Q 2.92 | F 1.77 | V 1.64 | K 2.35 | I 2.15 | N 2.46 | A 1.89 | L 2.39 | R 2.58
K11: S 2.57 | H 1.8 | E 3.03 | M 1.94 | Y 1.77 | L 1.54 | C 1.87 | A 2.14 | W 2.44 | V 1.97 | I 1.42 | F 1.92 | N 2.27 | G 2.08 | R 1.27 | P 2.2 | T 2.21 | D 2.37 | Q 1.77
C20: N 2.52 | L 2.23 | Y 2.23 | T 2.52 | I 2.17 | Q 3.22 | G 1.87 | S 2.44 | V 2.2 | A 1.82 | P 1.73 | F 2.41 | H 2.69 | W 2.06 | D 3.16 | E 2.09 | R 2.4 | M 2.57
L13: P 2.22 | G 2.01 | K 2.08 | V 2.15 | R 2.29 | Y 2.67 | C 2.57 | W 2.01 | A 2.01 | S 2.37 | E 2.56 | H 2.22 | N 1.96 | I 2.26 | D 1.7 | F 2.2 | Q 2.02 | M 2 | T 1.95
W8: Q 2.59 | P 2.73 | V 2.15 | N 2.25 | E 2.44 | D 3.27

Reference: the supplement of paper PMC10567573
